T1: DFNB31_1, Q9P202
T1 sequence (Q9P202 135-233, limits assumed, looked up): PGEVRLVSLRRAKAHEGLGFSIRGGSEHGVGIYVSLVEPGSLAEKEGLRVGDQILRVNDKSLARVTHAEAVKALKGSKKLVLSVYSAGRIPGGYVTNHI

T2: PDZRN3_1, Q9UPQ7
T2 sequence (Q9UPQ7 244-349, limits assumed, looked up): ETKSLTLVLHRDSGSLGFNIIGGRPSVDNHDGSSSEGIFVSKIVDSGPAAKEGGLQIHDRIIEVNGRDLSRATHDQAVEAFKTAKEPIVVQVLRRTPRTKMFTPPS

T3: SIPA1L2, Q9P2F8
T3 sequence (Q9P2F8 945-1036, limits assumed, looked up): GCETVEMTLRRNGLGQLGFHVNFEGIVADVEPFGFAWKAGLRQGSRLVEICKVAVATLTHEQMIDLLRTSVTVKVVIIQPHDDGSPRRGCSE

T4: HTRA3, P83110
T4 sequence (P83110 354-453, limits assumed, looked up): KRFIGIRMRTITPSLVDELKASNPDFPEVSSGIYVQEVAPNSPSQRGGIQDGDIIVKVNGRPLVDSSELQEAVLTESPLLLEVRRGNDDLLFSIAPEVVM

T5: DFNB31_3, Q9P202
T5 sequence (Q9P202 811-907, limits assumed, looked up): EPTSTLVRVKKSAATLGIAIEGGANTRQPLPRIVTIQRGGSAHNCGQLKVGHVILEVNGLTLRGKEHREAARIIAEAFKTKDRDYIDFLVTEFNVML

T6: LIN7B, Q9HAP6
T6 sequence (Q9HAP6 88-185, limits assumed, looked up): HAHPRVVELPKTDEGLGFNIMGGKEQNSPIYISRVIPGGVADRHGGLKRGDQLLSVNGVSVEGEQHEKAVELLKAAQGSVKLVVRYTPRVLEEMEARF

T7: ARHGEF11, O15085
T7 sequence (O15085 42-136, limits assumed, looked up): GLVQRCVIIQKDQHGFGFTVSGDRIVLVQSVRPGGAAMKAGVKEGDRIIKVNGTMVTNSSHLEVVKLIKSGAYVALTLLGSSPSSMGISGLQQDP

T8: MPP7, Q5T2T1
T8 sequence (Q5T2T1 134-230, limits assumed, looked up): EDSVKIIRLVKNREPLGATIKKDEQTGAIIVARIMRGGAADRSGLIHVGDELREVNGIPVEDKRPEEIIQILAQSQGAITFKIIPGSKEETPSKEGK

T9: SNTA1, Q13424
T9 sequence (Q13424 82-180, limits assumed, looked up): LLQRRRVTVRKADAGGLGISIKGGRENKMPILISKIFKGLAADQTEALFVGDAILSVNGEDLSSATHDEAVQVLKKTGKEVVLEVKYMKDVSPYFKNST

T10: GRIP1_4, Q9Y3R0
T10 sequence (Q9Y3R0 467-571, limits assumed, looked up): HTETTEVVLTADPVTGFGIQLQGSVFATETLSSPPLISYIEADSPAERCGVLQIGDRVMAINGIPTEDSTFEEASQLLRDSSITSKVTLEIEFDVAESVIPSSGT

T11: DLG3_3, Q92796
T11 sequence (Q92796 374-475, limits assumed, looked up): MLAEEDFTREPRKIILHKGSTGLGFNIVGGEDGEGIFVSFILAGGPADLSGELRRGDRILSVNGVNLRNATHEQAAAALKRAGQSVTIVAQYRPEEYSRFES

T12: LIN7C, Q9NUP9
T12 sequence (Q9NUP9 88-185, limits assumed, looked up): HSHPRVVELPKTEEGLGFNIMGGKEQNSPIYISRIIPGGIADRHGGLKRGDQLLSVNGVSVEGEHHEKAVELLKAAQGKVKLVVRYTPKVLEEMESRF

T13: GRIP1_3, Q9Y3R0
T13 sequence (Q9Y3R0 247-346, limits assumed, looked up): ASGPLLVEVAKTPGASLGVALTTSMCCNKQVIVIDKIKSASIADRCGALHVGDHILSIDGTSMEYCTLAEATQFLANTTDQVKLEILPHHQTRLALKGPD


Assays:
Test in all cases: holdup assay
Parameters in all cases: key: below the threshold = too weak to quantify, mostly under pKd 3.1 to 4
Details in all cases: plain residues with an end cap or a label only (N-terminal biotin on a linker: ado-ado)
DFNB31_1, Q9P202 = target: T1, DFNB31_1, Q9P202
FRMPD4, Q14CM0 = target: FRMPD4, Q14CM0
DLG4_2, P78352 = target: DLG4_2, P78352
GRIP2_5, Q9C0E4 = target: GRIP2_5, Q9C0E4
PDZRN3_1, Q9UPQ7 = target: T2, PDZRN3_1, Q9UPQ7
SIPA1L2, Q9P2F8 = target: T3, SIPA1L2, Q9P2F8
HTRA3, P83110 = target: T4, HTRA3, P83110
DFNB31_3, Q9P202 = target: T5, DFNB31_3, Q9P202
GIPC2, Q8TF65 = target: GIPC2, Q8TF65
LIN7B, Q9HAP6 = target: T6, LIN7B, Q9HAP6
ARHGEF11, O15085 = target: T7, ARHGEF11, O15085
CASK, O14936 = target: CASK, O14936
MPP7, Q5T2T1 = target: T8, MPP7, Q5T2T1
SNTA1, Q13424 = target: T9, SNTA1, Q13424
GRID2IP_1, A4D2P6 = target: GRID2IP_1, A4D2P6
MAGI2_4, Q86UL8 = target: MAGI2_4, Q86UL8
GRIP1_4, Q9Y3R0 = target: T10, GRIP1_4, Q9Y3R0
DLG3_3, Q92796 = target: T11, DLG3_3, Q92796
GORASP1, Q9BQQ3 = target: GORASP1, Q9BQQ3
GOPC, Q9HD26 = target: GOPC, Q9HD26
Inadl_2, Q8NI35 = target: Inadl_2, Q8NI35
NHERF4_2, Q86UT5 = target: NHERF4_2, Q86UT5
GORASP2, Q9H8Y8 = target: GORASP2, Q9H8Y8
LIN7C, Q9NUP9 = target: T12, LIN7C, Q9NUP9
GRIP1_3, Q9Y3R0 = target: T13, GRIP1_3, Q9Y3R0

GIPC2, Q8TF65, sequence (Q8TF65 112-203): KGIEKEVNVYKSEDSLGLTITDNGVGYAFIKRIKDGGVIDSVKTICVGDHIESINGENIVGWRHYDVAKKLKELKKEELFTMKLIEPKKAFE
Inadl_2, Q8NI35, sequence (Q8NI35 238-335): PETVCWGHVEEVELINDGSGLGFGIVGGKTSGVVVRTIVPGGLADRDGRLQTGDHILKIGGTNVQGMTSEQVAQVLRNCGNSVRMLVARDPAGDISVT
GRID2IP_1, A4D2P6, sequence (A4D2P6 1-87): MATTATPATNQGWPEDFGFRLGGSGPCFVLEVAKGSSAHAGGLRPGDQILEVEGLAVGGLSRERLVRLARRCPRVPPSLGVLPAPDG
GRIP2_5, Q9C0E4, sequence (Q9C0E4 544-642): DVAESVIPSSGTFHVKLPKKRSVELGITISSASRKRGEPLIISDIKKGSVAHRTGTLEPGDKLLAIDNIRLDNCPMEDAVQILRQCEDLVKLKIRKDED
CASK, O14936, sequence (O14936 487-570): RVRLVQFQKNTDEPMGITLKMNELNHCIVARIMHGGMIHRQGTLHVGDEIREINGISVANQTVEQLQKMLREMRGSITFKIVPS
GORASP1, Q9BQQ3, sequence (Q9BQQ3 1-208): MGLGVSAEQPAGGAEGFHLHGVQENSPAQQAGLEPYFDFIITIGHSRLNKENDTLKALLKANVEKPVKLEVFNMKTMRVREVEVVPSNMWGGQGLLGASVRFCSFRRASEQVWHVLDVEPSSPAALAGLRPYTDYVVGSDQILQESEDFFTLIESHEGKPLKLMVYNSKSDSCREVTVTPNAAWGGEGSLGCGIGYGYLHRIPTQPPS
DLG4_2, P78352, sequence (P78352 155-259): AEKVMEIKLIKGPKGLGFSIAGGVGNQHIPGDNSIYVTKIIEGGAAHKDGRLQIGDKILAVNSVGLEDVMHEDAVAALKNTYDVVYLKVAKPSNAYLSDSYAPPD
NHERF4_2, Q86UT5, sequence (Q86UT5 220-308): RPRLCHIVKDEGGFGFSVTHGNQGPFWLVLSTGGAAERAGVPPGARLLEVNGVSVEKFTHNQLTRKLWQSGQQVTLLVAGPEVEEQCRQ
FRMPD4, Q14CM0, sequence (Q14CM0 67-160): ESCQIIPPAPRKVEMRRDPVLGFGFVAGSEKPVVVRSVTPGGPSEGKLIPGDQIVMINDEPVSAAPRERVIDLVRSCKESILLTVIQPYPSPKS
MAGI2_4, Q86UL8, sequence (Q86UL8 772-865): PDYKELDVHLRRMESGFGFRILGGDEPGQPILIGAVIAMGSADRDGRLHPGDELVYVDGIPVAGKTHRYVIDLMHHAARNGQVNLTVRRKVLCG

| pKd (DFNB31_1, Q9P202) | pKd (FRMPD4, Q14CM0) | pKd (DLG4_2, P78352) | pKd (GRIP2_5, Q9C0E4) | pKd (PDZRN3_1, Q9UPQ7) | pKd (SIPA1L2, Q9P2F8) | pKd (HTRA3, P83110) | pKd (DFNB31_3, Q9P202) | pKd (GIPC2, Q8TF65) | pKd (LIN7B, Q9HAP6) | pKd (ARHGEF11, O15085) | pKd (CASK, O14936) | pKd (MPP7, Q5T2T1) | pKd (SNTA1, Q13424) | pKd (GRID2IP_1, A4D2P6) | pKd (MAGI2_4, Q86UL8) | pKd (GRIP1_4, Q9Y3R0) | pKd (DLG3_3, Q92796) | pKd (GORASP1, Q9BQQ3) | pKd (GOPC, Q9HD26) | Binder | also measured |
| --- | --- | --- | --- | --- | --- | --- | --- | --- | --- | --- | --- | --- | --- | --- | --- | --- | --- | --- | --- | --- | --- |
| below the threshold | below the threshold | below the threshold | below the threshold | below the threshold | below the threshold | below the threshold | 4.21 | 3.53 | below the threshold | 3.55 | below the threshold | below the threshold | below the threshold | below the threshold | below the threshold | below the threshold | below the threshold | below the threshold | below the threshold | QQGLLPHSSC [TYRO3, Q06418] | pKd (Inadl_2, Q8NI35): below the threshold; pKd (NHERF4_2, Q86UT5): below the threshold; pKd (GORASP2, Q9H8Y8): below the threshold; pKd (LIN7C, Q9NUP9): 3.95; pKd (GRIP1_3, Q9Y3R0): below the threshold |
| 3.77 | below the threshold | 4.94 | below the threshold | 3.85 | below the threshold | below the threshold | 4.06 | 4.18 | below the threshold | 4.25 | below the threshold | below the threshold | 4.51 | 3.66 | 4.13 | below the threshold | 4.13 | below the threshold | 3.67 | TNSKQGETTV [FZD1, Q9UP38] | pKd (Inadl_2, Q8NI35): below the threshold; pKd (NHERF4_2, Q86UT5): below the threshold; pKd (GORASP2, Q9H8Y8): 3.99; pKd (LIN7C, Q9NUP9): 4.45; pKd (GRIP1_3, Q9Y3R0): below the threshold |

Continued, binder first:

| Binder | pKd (DFNB31_1, Q9P202) | pKd (FRMPD4, Q14CM0) | pKd (DLG4_2, P78352) | pKd (GRIP2_5, Q9C0E4) | pKd (PDZRN3_1, Q9UPQ7) | pKd (SIPA1L2, Q9P2F8) | pKd (HTRA3, P83110) | pKd (DFNB31_3, Q9P202) | pKd (GIPC2, Q8TF65) | pKd (LIN7B, Q9HAP6) | pKd (ARHGEF11, O15085) | pKd (CASK, O14936) | pKd (MPP7, Q5T2T1) | pKd (SNTA1, Q13424) | pKd (GRID2IP_1, A4D2P6) | pKd (MAGI2_4, Q86UL8) | pKd (GRIP1_4, Q9Y3R0) | pKd (DLG3_3, Q92796) | pKd (GORASP1, Q9BQQ3) | pKd (GOPC, Q9HD26) | also measured |
| --- | --- | --- | --- | --- | --- | --- | --- | --- | --- | --- | --- | --- | --- | --- | --- | --- | --- | --- | --- | --- | --- |
| IQISELETNV [SLC1A7, O00341] | 4.19 | 3.56 | 4.67 | below the threshold | 3.84 | below the threshold | below the threshold | below the threshold | 3.86 | below the threshold | 3.94 | below the threshold | below the threshold | 4.98 | below the threshold | 3.56 | below the threshold | 3.56 | below the threshold | below the threshold | pKd (Inadl_2, Q8NI35): below the threshold; pKd (NHERF4_2, Q86UT5): below the threshold; pKd (GORASP2, Q9H8Y8): below the threshold; pKd (LIN7C, Q9NUP9): 3.97; pKd (GRIP1_3, Q9Y3R0): below the threshold |
| TFSRRPKTRV [CD226, Q15762] | below the threshold | below the threshold | 3.56 | below the threshold | 3.48 | below the threshold | below the threshold | below the threshold | below the threshold | below the threshold | 4.06 | below the threshold | below the threshold | 3.79 | below the threshold | below the threshold | below the threshold | 3.81 | 3.75 | 4.56 | pKd (Inadl_2, Q8NI35): below the threshold; pKd (NHERF4_2, Q86UT5): below the threshold; pKd (GORASP2, Q9H8Y8): 3.87; pKd (LIN7C, Q9NUP9): below the threshold; pKd (GRIP1_3, Q9Y3R0): below the threshold |
| AKADAQESRL [PLCB2, Q00722] | 4.11 | 4.05 | below the threshold | below the threshold | 4.42 | below the threshold | below the threshold | below the threshold | below the threshold | below the threshold | 3.66 | below the threshold | below the threshold | 4.2 | below the threshold | below the threshold | below the threshold | below the threshold | below the threshold | 4.1 | pKd (Inadl_2, Q8NI35): below the threshold; pKd (NHERF4_2, Q86UT5): below the threshold; pKd (GORASP2, Q9H8Y8): below the threshold; pKd (LIN7C, Q9NUP9): 4.28; pKd (GRIP1_3, Q9Y3R0): below the threshold |
| KSRPENGTVC [TMEM178B, H3BS89] | below the threshold | 3.49 | below the threshold | below the threshold | below the threshold | below the threshold | 4.44 | 3.99 | below the threshold | below the threshold | 3.89 | below the threshold | below the threshold | below the threshold | below the threshold | 3.74 | below the threshold | below the threshold | below the threshold | below the threshold | pKd (Inadl_2, Q8NI35): below the threshold; pKd (NHERF4_2, Q86UT5): below the threshold; pKd (GORASP2, Q9H8Y8): below the threshold; pKd (LIN7C, Q9NUP9): below the threshold; pKd (GRIP1_3, Q9Y3R0): below the threshold |

From paper PMC9482650, “Quantitative fragmentomics allow affinity mapping of interactomes” (Nature Communications, 2022)
